Experimental data from patent US20170298096A1 (CANIMGUIDE THERAPEUTICS, published 2017).

B1: SEQ ID NO: 310 KKLDSFFVKLSLFTER (peptide)
peptide: KKLDSFFVKLSLFTER
B2: SEQ ID NO: 319 KKLDTVFVKLSLFTER (peptide)
peptide: KKLDTVFVKLSLFTER
B3: SEQ ID NO: 338 KKLDTFFVKPSLFTER (peptide)
peptide: KKLDTFFVKPSLFTER
B4: SEQ ID NO: 334 KKLDTFFVKGSLFTER (peptide)
peptide: KKLDTFFVKGSLFTER
B5: SEQ ID NO: 315 KKLDTMFVKLSLFTER (peptide)
peptide: KKLDTMFVKLSLFTER
B6: SEQ ID NO: 312 KKLDYFFVKLSLFTER (peptide)
peptide: KKLDYFFVKLSLFTER
B7: SEQ ID NO: 337 KKLDTFFVKNSLFTER (peptide)
peptide: KKLDTFFVKNSLFTER
B8: SEQ ID NO: 325 KKLDTFVVKLSLFTER (peptide)
peptide: KKLDTFVVKLSLFTER
B9: SEQ ID NO: 316 KKLDTNFVKLSLFTER (peptide)
peptide: KKLDTNFVKLSLFTER
B10: SEQ ID NO: 327 KKLDTFFGKLSLFTER (peptide)
peptide: KKLDTFFGKLSLFTER
B11: SEQ ID NO: 336 KKLDTFFVKMSLFTER (peptide)
peptide: KKLDTFFVKMSLFTER
B12: SEQ ID NO: 332 KKLDTFFVKASLFTER (peptide)
peptide: KKLDTFFVKASLFTER
B13: SEQ ID NO: 320 KKLDTFLVKLSLFTER (peptide)
peptide: KKLDTFLVKLSLFTER
B14: SEQ ID NO: 313 KKLDTAFVKLSLFTER (peptide)
peptide: KKLDTAFVKLSLFTER
B15: SEQ ID NO: 330 KKLDTFFRKLSLFTER (peptide)
peptide: KKLDTFFRKLSLFTER
B16: SEQ ID NO: 318 KKLDTTFVKLSLFTER (peptide)
peptide: KKLDTTFVKLSLFTER
B17: SEQ ID NO: 311 KKLDWFFVKLSLFTER (peptide)
peptide: KKLDWFFVKLSLFTER
B18: SEQ ID NO: 322 KKLDTFQVKLSLFTER (peptide)
peptide: KKLDTFQVKLSLFTER
B19: SEQ ID NO: 317 KKLDTPFVKLSLFTER (peptide)
peptide: KKLDTPFVKLSLFTER
B20: SEQ ID NO: 326 KKLDTFFFKLSLFTER (peptide)
peptide: KKLDTFFFKLSLFTER
B21: SEQ ID NO: 323 KKLDTFSVKLSLFTER (peptide)
peptide: KKLDTFSVKLSLFTER
B22: SEQ ID NO: 333 KKLDTFFVKFSLFTER (peptide)
peptide: KKLDTFFVKFSLFTER
B23: SEQ ID NO: 321 KKLDTFMVKLSLFTER (peptide)
peptide: KKLDTFMVKLSLFTER
B24: SEQ ID NO: 314 KKLDTIFVKLSLFTER (peptide)
peptide: KKLDTIFVKLSLFTER
B25: SEQ ID NO: 324 KKLDTFTVKLSLFTER (peptide)
peptide: KKLDTFTVKLSLFTER
B26: SEQ ID NO: 329 KKLDTFFPKLSLFTER (peptide)
peptide: KKLDTFFPKLSLFTER
notes: also called 32251
B27: SEQ ID NO: 328 KKLDTFFLKLSLFTER (peptide)
peptide: KKLDTFFLKLSLFTER
B28: SEQ ID NO: 331 KKLDTFFVRLSLFTER (peptide)
peptide: KKLDTFFVRLSLFTER
B29: SEQ ID NO: 335 KKLDTFFVKISLFTER (peptide)
peptide: KKLDTFFVKISLFTER

Molecular target: T1, His-tagged P3028 peptide (PGE73) (human)
T1 construct: albumin-derived peptide, in solution at 0.5 ug/mL; not shown: His-tag
T1 peptide: VFDEFKPLVEEPQNLIK
Assay: PEPSCAN ELISA, peptide on card

Point of comparison: B10, “RAMPO Score” value 379. Against it:
- B1 — higher, 458
- B2 — higher, 547
- B3 — higher, 436
- B4 — higher, 495
- B5 — higher, 467
- B6 — higher, 425
- B7 — lower, 365
- B8 — higher, 527
- B9 — higher, 446
- B11 — higher, 460
- B12 — higher, 426
- B13 — higher, 517
- B14 — higher, 575
- B15 — lower, 365
- B16 — higher, 481
- B17 — higher, 418
- B18 — higher, 511
- B19 — higher, 497
- B20 — lower, 358
- B21 — higher, 700
- B22 — higher, 403
- B23 — higher, 712
- B24 — higher, 466
- B25 — higher, 517
- B26 — higher, 456
- B27 — higher, 411
- B28 — lower, 374
- B29 — higher, 415
